Experiment in all cases: holdup assay
Parameters in all cases: key: below the threshold = too weak to quantify, mostly under pKd 3.1 to 4
Common to all, as to details: plain residues with an end cap or a label only (N-terminal biotin on a linker: ado-ado)

Experiment [1] concerns the target T1, APBA1_1, Q02410.
T1 sequence (Q02410 651-752, limits assumed, looked up): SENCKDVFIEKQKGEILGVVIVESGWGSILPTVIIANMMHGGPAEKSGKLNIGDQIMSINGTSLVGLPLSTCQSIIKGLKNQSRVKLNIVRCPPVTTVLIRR

For experiment [2], the target named is T2, APBA2_2, Q99767.
T2 sequence (Q99767 654-744, limits assumed, looked up): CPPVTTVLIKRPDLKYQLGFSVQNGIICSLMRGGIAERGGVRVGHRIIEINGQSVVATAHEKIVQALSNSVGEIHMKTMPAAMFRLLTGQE

The target of experiment [3] is T3, ARHGEF11, O15085.
T3 sequence (O15085 42-136, limits assumed, looked up): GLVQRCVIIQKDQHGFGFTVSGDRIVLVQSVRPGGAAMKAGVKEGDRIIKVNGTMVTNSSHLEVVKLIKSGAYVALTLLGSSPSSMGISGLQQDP

The target in experiment [4] is DLG2_3, Q15700.
The target in experiment [5] is T4, DLG3_2, Q92796.
T4 sequence (Q92796 221-321, limits assumed, looked up): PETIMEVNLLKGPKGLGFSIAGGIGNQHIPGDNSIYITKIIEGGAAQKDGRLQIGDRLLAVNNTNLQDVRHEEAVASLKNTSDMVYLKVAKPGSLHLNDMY

Experiment [6] concerns the target T5, DLG3_3, Q92796.
T5 sequence (Q92796 374-475, limits assumed, looked up): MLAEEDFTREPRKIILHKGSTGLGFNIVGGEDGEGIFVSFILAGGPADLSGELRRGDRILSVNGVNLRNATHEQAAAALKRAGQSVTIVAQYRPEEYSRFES

Experiment [7] deals with DLG5_1, Q8TDM6.
DLG5_1, Q8TDM6, sequence (Q8TDM6 617-713): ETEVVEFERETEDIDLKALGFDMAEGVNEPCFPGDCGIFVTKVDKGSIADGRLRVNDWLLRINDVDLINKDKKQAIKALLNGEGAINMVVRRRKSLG
Experiment [8] deals with GOPC, Q9HD26.
Experiment [9] addresses GRASP, Q7Z6J2.
The target of experiment [10] is GRID2IP_2, A4D2P6.
GRID2IP_2, A4D2P6, sequence (A4D2P6 272-370): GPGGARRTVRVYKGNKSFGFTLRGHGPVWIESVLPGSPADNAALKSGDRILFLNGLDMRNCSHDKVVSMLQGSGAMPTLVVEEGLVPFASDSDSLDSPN
Experiment [11] addresses T6, GRIP1_2, Q9Y3R0.
T6 sequence (Q9Y3R0 145-248, limits assumed, looked up): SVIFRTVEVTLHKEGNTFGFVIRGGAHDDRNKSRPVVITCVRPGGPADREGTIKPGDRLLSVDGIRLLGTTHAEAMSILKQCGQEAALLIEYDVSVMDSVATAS

For experiment [12], the target named is T7, GRIP1_3, Q9Y3R0.
T7 sequence (Q9Y3R0 247-346, limits assumed, looked up): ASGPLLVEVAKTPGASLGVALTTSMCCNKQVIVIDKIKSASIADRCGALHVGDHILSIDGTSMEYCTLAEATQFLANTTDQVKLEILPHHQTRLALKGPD

Experiment [13] addresses GRIP2_4, Q9C0E4.
Experiment [14] deals with T8, HTRA3, P83110.
T8 sequence (P83110 354-453, limits assumed, looked up): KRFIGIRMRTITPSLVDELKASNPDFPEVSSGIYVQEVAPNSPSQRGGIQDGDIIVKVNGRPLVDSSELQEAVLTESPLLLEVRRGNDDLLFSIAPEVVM

For experiment [15], the target named is Inadl_1, Q8NI35.
Inadl_1, Q8NI35, sequence (Q8NI35 113-229): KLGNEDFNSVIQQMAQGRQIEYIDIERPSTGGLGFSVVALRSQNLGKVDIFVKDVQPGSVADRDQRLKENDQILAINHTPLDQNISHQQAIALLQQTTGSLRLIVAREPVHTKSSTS
The target in experiment [16] is Inadl_2, Q8NI35.
Inadl_2, Q8NI35, sequence (Q8NI35 238-335): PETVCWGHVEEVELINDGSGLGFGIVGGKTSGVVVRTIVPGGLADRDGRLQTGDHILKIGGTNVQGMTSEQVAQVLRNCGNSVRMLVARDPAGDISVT
Experiment [17] deals with LAP2, Q96RT1.
LAP2, Q96RT1, sequence (Q96RT1 other isoform, or with tags, fused parts or gaps): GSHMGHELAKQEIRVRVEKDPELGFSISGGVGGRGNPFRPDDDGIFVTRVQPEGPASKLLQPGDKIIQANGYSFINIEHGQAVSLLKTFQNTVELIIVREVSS
The target in experiment [18] is MAGI1_2, Q96QZ7.
MAGI1_2, Q96QZ7, sequence (Q96QZ7 456-580): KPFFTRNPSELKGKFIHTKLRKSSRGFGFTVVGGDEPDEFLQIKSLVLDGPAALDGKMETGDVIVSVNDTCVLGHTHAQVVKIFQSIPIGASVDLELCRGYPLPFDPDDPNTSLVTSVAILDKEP
For experiment [19], the target named is T9, MPDZ_12, O75970.
T9 sequence (O75970 1857-1958, limits assumed, looked up): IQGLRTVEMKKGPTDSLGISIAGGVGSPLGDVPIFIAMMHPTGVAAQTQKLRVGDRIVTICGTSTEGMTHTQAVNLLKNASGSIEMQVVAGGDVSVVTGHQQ

Experiment [20] concerns the target T10, MPP6, Q9NZW5.
T10 sequence (Q9NZW5 125-219, limits assumed, looked up): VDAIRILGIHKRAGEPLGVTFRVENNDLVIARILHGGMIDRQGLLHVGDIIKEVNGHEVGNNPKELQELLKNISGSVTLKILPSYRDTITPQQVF

Experiment [21] concerns the target T11, PARD3B_1, Q8TEW8.
T11 sequence (Q8TEW8 196-299, limits assumed, looked up): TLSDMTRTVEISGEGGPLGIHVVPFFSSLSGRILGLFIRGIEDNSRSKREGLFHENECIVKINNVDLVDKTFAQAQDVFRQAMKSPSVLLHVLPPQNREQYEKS

Experiment [22] concerns the target SCRIB_2, Q14160.
The target of experiment [23] is T12, SHANK1, Q9Y566.
T12 sequence (Q9Y566 658-767, limits assumed, looked up): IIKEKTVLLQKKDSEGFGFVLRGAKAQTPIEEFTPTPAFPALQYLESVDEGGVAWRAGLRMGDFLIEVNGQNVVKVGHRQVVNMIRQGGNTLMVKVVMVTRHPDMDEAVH

Experiment [24] addresses TJP1_2, Q07157.

GRIP2_4, Q9C0E4, sequence (Q9C0E4 446-548): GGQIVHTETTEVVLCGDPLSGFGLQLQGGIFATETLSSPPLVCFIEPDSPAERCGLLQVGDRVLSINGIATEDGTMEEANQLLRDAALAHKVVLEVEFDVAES
TJP1_2, Q07157, sequence (Q07157 181-274): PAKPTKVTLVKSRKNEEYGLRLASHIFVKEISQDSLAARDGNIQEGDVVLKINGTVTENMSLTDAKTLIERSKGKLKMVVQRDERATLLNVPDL
GRASP, Q7Z6J2, sequence (Q7Z6J2 96-193): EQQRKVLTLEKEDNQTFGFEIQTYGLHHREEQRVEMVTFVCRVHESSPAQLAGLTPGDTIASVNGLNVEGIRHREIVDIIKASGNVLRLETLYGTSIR
SCRIB_2, Q14160, sequence (Q14160 857-960): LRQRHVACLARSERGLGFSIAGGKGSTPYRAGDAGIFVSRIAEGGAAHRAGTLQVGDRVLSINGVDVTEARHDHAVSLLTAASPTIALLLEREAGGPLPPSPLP

What is called pKd is −log10 of the Kd, conventionally taken in molar units. For the molecule TGPWKNETTV [ADGRA1, Q86SQ6], the pKd entry in experiment [1] was “below the threshold”; in [2] it was “below the threshold”; in [3], 4.09; in [4], 4.64; in [5] it was 5.01; in experiment [6], 4.48. The negative logarithm of the Kd (pKd) result was “below the threshold” in experiment [7]; 3.69 in experiment [8]; “below the threshold” in [9]; “below the threshold” in [10]; “below the threshold” in [11]; “below the threshold” in experiment [12]. The negative logarithm of the Kd (pKd) result is “below the threshold” in experiment [13]; “below the threshold” in experiment [14]; “below the threshold” in [15]; “below the threshold” in [16]; 3.84 in experiment [17]; 4.67 in [18]. Besides, the pKd result in experiment [19] was “below the threshold”; in experiment [20], “below the threshold”; in experiment [21] it was “below the threshold”; in experiment [22], 4.25; in experiment [23], “below the threshold”; in experiment [24], “below the threshold”.

With REKKFFCTIL [GNG4, P50150], the pKd result is “below the threshold” in [1]; 3.47 in experiment [2]; 5.34 in experiment [3]; 4.41 in [4]; 4.13 in experiment [5]; 4.38 in experiment [6]. Also, the pKd result in [7] was “below the threshold”; in experiment [8] it was 5.18; in experiment [9], 5.1; in experiment [10] it was 5.07; in experiment [11] it was 4.1; in experiment [12], “below the threshold”. Further, the negative logarithm of the Kd (pKd) entry in experiment [13] is “below the threshold”; in experiment [14] it was 3.78; in experiment [15], “below the threshold”; in [16] it was “below the threshold”; in experiment [17], 3.79; in experiment [18], 4.92. The negative-log Kd (pKd) in experiment [19] was 3.62; in experiment [20], “below the threshold”; in experiment [21] it was 5; in experiment [22], “below the threshold”; in experiment [23], 5.21; in experiment [24] it was “below the threshold”.

With ALPLPQSSTC [IGF1R, P08069], the pKd result was “below the threshold” in [1]; “below the threshold” in [2]; 4.13 in experiment [3]; 3.76 in experiment [4]; 4.22 in [5]; “below the threshold” in [6]. In addition, the negative logarithm of the Kd (pKd) entry is “below the threshold” in experiment [7]; 3.55 in [8]; 4.12 in experiment [9]; 3.99 in experiment [10]; “below the threshold” in experiment [11]; “below the threshold” in experiment [12]. Also, the negative logarithm of the Kd (pKd) entry in experiment [13] was “below the threshold”; in [14], 4.24; in experiment [15] it was “below the threshold”; in experiment [16], “below the threshold”; in experiment [17] it was “below the threshold”; in experiment [18], “below the threshold”. In addition, the pKd entry in experiment [19], in experiment [20], in experiment [21], in [22], in experiment [23] and in experiment [24] was “below the threshold” each time.

As to RRLQGTSSMV [GOLT1A, Q6ZVE7], the pKd entry is “below the threshold” in experiment [1]; “below the threshold” in experiment [2]; “below the threshold” in [3]; 4.06 in [4]; 4.67 in experiment [5]; “below the threshold” in experiment [6]. Besides, the pKd entry was “below the threshold” in experiment [7]; “below the threshold” in experiment [8]; 3.89 in experiment [9]; 3.93 in experiment [10]; “below the threshold” in experiment [11]; “below the threshold” in experiment [12]. For the same molecule, the negative-log Kd (pKd) result is “below the threshold” in experiment [13]; 3.64 in [14]; “below the threshold” in experiment [15]; “below the threshold” in [16]; “below the threshold” in experiment [17]; 4.04 in experiment [18]. Further, the negative logarithm of the Kd (pKd) result was “below the threshold” in experiment [19]; “below the threshold” in experiment [20]; “below the threshold” in [21]; 3.57 in experiment [22]; “below the threshold” in experiment [23]; “below the threshold” in [24].

The values are drawn from publication PMC9482650, “Quantitative fragmentomics allow affinity mapping of interactomes” (Nature Communications, 2022).
